B1: Transcription factor HFR1 (Arabidopsis thaliana (Mouse-ear cress)), Q9FE22 (parent)
chain: MSNNQAFMELGWRNDVGSLAVKDQGMMSERARSDEDRLINGLKWGYGYFDHDQTDNYLQIVPEIHKEVENAKEDLLVVVPDEHSETDDHHHIKDFSERSDHRFYLRNKHENPKKRRIQVLSSDDESEEFTREVPSVTRKGSKRRRRDEKMSNKMRKLQQLVPNCHKTDKVSVLDKTIEYMKNLQLQLQMMSTVGVNPYFLPATLGFGMHNHMLTAMASAHGLNPANHMMPSPLIPALNWPLPPFTNISFPHSSSQSLFLTTSSPASSPQSLHGLVPYFPSFLDFSSHAMRRL
partner: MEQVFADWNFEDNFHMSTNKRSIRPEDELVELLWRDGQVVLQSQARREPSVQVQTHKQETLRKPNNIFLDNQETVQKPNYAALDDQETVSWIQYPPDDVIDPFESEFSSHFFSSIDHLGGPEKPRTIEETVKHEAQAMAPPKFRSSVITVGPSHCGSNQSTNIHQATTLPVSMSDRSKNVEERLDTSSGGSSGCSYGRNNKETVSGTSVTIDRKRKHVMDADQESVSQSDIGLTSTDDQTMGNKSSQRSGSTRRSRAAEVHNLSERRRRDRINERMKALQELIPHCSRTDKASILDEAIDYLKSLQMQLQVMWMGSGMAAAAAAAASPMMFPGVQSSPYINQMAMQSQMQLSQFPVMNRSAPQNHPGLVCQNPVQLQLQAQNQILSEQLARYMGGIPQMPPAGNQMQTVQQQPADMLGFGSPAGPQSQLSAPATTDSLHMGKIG
B2: Transcription factor HFR1 (Arabidopsis thaliana (Mouse-ear cress)), Q9FE22 (parent)
chain: B1 chain
partner: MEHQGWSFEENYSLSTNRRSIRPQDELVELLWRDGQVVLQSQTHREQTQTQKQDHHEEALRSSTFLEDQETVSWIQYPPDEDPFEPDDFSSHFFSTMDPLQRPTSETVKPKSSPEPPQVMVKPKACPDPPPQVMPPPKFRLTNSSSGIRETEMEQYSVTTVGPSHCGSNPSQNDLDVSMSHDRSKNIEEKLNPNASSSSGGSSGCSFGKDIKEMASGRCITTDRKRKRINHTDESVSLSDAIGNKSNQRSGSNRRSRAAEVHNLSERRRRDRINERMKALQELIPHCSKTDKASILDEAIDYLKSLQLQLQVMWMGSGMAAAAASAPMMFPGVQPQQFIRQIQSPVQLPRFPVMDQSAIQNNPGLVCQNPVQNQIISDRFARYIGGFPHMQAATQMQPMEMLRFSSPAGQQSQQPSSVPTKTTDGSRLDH

Variants of: B1
Conditions: with pif5_arath PIF5, Q84LH8

Q: Which “effect of a mutation on the interaction” value does the source give for V172D here?
A: disrupting interaction

Q: L173E was tested. Which “effect of a mutation on the interaction” value did it give?
A: disrupting interaction

Variants of: B2
Conditions: with pif4_arath PIF4, Q8W2F3

Q: How did the “effect of a mutation on the interaction” value turn out when V172D was run?
A: disrupting interaction

Q: Which “effect of a mutation on the interaction” value does the source give for L173E here?
A: disrupting interaction

From IntAct's records for PubMed 19851283
